Test results reported in patent US6835382B2, “Ii peptide therapeutics to enhance antigen presentation” (University of Massachusetts, priority 1996, dated 2004).
Non-standard residues stand in square brackets, D forms with d. hArg = N=C(N)NCCCC[C@H](N)C(=O)O; Cit = NC(=O)NCCC[C@H](N)C(=O)O

Target: T1, murine E^d MHC class II allele (Mus musculus, UniProt P01904+P01915)
T1 sequence (P01904 26-255): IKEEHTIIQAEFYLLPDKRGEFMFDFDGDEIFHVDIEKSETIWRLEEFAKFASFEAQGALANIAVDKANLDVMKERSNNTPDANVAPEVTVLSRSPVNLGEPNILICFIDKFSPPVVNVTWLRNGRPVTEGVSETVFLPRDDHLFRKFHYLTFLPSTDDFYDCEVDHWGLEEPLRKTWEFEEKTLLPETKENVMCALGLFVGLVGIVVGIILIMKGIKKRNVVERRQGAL
T1 sequence (P01915 27-264 limits assumed): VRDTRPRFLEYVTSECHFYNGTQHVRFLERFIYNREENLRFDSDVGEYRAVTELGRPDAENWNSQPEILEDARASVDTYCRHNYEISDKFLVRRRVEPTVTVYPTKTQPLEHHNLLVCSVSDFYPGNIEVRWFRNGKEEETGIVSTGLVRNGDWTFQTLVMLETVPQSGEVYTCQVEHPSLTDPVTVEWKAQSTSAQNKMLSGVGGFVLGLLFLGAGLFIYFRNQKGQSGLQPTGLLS
Assay: processed antigen assay, E^d allele (APC pulsed with native HEL)
Type: cell-based
Set-up: The A20 and CH27 B cell lymphoma lines express H-2^d and H-2^k alleles, respectively; endogenous in cells; host or cells: A20 B cell lymphoma (mitomycin C-treated or paraformaldehyde-fixed)
Conditions: AE peptide 64 μM; for T cell response relative to baseline (None = 1.00), E^d: Table 31; for T cell response relative to baseline (None = 1.0), 5 μM HEL E^d, first value / T cell response relative to baseline (None = 1.0), 5 μM HEL E^d, second value / T cell response relative to baseline (None = 1.0), 10 μM HEL E^d, first value / T cell response relative to baseline (None = 1.0), 10 μM HEL E^d, second value / T cell response relative to baseline (None = 1.0), 20 μM HEL E^d, first value / T cell response relative to baseline (None = 1.0), 20 μM HEL E^d, second value: Table 29; for T cell response relative to baseline (None = 1.0), 5 μM HEL E^d, first value / T cell response relative to baseline (None = 1.0), 5 μM HEL E^d, second value: native HEL prepulse 5 μM; for T cell response relative to baseline (None = 1.0), 5 μM HEL E^d, first value / T cell response relative to baseline (None = 1.0), 10 μM HEL E^d, first value / T cell response relative to baseline (None = 1.0), 20 μM HEL E^d, first value: supernatant dilution 1:4 (first value); for T cell response relative to baseline (None = 1.0), 5 μM HEL E^d, second value / T cell response relative to baseline (None = 1.0), 10 μM HEL E^d, second value / T cell response relative to baseline (None = 1.0), 20 μM HEL E^d, second value: supernatant dilution 1:8 (second value)
Description: In a third type of assay, the “processed antigen assay”, certain of the AE101 series of peptides inhibit stimulation of specific T cell hybridomas by antigenic peptides which are derived from the endogenous processing of a native protein antigen. This assay, which is related to the peptide prepulse assay, is performed by incubating APC with native protein antigen for 8 h, after which the pulsed APC are washed and treated with mitomycin C. Those pulsed APC are then combined with AE101 series peptides and T cell hybridomas and are incubated for 24 h. After that incubation, an aliquot of the culture supernatant is transferred to a second culture to measure T cell stimulation, as reflected in the effect of released interleukins on the growth of an interleukin-dependent, indicator cell line. During the 8 h incubation with native protein antigen, the protein antigen is taken into the APC. The native protein enters the processing pathway within the APC, where it is enzymatically cleaved to peptide fragments. Those peptide fragments with high affinity for the particular MHC class II molecules produced by the APC form antigenic peptide/MHC class II complexes which are transported to the cell surface. At the cell surface, the MHC class II molecules are contacted by the AE101 peptides, which cause the release of the antigenic peptide by the same mechanism proposed for the “peptide prepulse” assay above.
The “processed antigen assay” was carried out under essentially the same conditions as the “peptide prepulse assay”, with the following modifications. Untreated APC were incubated at 1×10^6/mL in 24-well plates (1 mL/well) with native protein antigen for 8 h. Following that incubation, the pulsed APC were washed, treated with mitomycin C, and washed again. AE101 series peptide was added at 64 μM, 16 μM, 4 μM, and 1 μM concentrations for 24 h in the presence of the T cell hybridoma specific for the antigenic peptide. Interleukin release from these cultures was measured by proliferation of HT-2 cells to interleukins in supernatants transferred from the primary culture. The baseline T cell response was measured by culturing T hybridoma cells with the native antigen-prepulsed APC in the absence of AE101 series peptides.
The “processed antigen assay” was carried out under essentially the same conditions as the “peptide prepulse” assay, with the following modifications. Untreated APC were incubated at 1×10^6/mL in 24-well plates (1 mL/well) with native protein antigen for 8 h. Following incubation, the pulsed APC were washed, treated with mitomycin C, and were washed again. The assay conditions were then as described for “peptide prepulse” above. The baseline T cell response was measured by culturing T hybridoma cells with the native antigen-prepulsed APC in the absence of AE101 peptides.
Table 2.9: Activities of substitution series at Leucine^80 in AE114 in a processed antigen assay. […] The results in this assay constitute, relatively, a mirror image of the result in the simultaneous assay (Example 1, Table 7) and parallel those of the antigenic peptide prepulse assay (Example 5, Table 24). Untreated APC were incubated with native HEL, instead of antigenic peptide, for 8 h. After incubation, the pulsed cells were washed and mitomycin C treated before being cocultured with AE-peptides and T cell hybridomas. Wells containing only T cells and native HEL-prepulsed APC were used to determine the Baseline response, or 1, in the absence of AE peptides. The concentration of AE peptide used was 64 μM for these assays. The supernatant dilutions used in the HT-2 cell assay were 1:4 (first value) and 1:8 (second value).

[1] = Table 30, native HEL prepulse 10 μM, supernatant dilution 1:8
[2] = native HEL prepulse 10 μM, supernatant dilution 1:4
[3] = Table 32, native HEL prepulse 20 μM, supernatant dilution 1:4

Substance	T cell response relative to baseline (None = 1.0), E^d [1]	T cell response relative to baseline (None = 1.00), E^d [2]	T cell response relative to baseline (None = 1.0), E^d [3]	T cell response relative to baseline (None = 1.0), 5 μM HEL E^d, first value	T cell response relative to baseline (None = 1.0), 5 μM HEL E^d, second value	T cell response relative to baseline (None = 1.0), 10 μM HEL E^d, first value (native HEL prepulse 10 μM)	T cell response relative to baseline (None = 1.0), 10 μM HEL E^d, second value (native HEL prepulse 10 μM)	T cell response relative to baseline (None = 1.0), 20 μM HEL E^d, first value (native HEL prepulse 20 μM)	T cell response relative to baseline (None = 1.0), 20 μM HEL E^d, second value (native HEL prepulse 20 μM)
Ac-LRLKWPK-NH2 [AE309]	0.29	0.44	0.55	–	–	–	–	–	–
Ac-LRLKYPK-NH2 [AE301]	0.19	0.46	0.54	–	–	–	–	–	–
Ac-LRLKYPk-NH2 [AE307]	0.48	–	–	–	–	–	–	–	–
Ac-LRLKyPK-NH2 [AE308]	0.60	–	–	–	–	–	–	–	–
Ac-LRM M LPK-NH2 (Ac-LRMMLPK-NH2) [AE220]	–	–	0.63	–	–	–	–	–	–
Ac-LRMK (mL) PK-NH2 [AE175]	0.70	–	–	–	–	–	–	–	–
Ac-LRMK Cit PK-NH2 (Ac-LRMK[Cit]PK-NH2; SMILES CSCC[C@H](NC(=O)[C@H](CCCNC(=N)N)NC(=O)[C@H](CC(C)C)NC(C)=O)C(=O)N[C@@H](CCCCN)C(=O)N[C@@H](CCCNC(N)=O)C(=O)N1CCC[C@H]1C(=O)N[C@@H](CCCCN)C(N)=O) [AE226]	–	–	–	0.60,	0.34	0.68,	0.58	0.95,	0.87
Ac-LRMK D PK-NH2 (Ac-LRMKDPK-NH2) [AE230]	–	–	–	0.81,	0.62	0.93,	0.77	1.1,	0.98
Ac-LRMK E PK-NH2 (Ac-LRMKEPK-NH2) [AE231]	–	–	–	0.96,	0.85	0.94,	0.83	1.0	1.1
Ac-LRMK F PK-NH2 (Ac-LRMKFPK-NH2) [AE234]	–	–	–	0.51,	0.62	0.65,	0.60	0.98,	0.88
Ac-LRMK H PK-NH2 (Ac-LRMKHPK-NH2) [AE228]	–	–	–	0.35,	0.45	0.41,	0.41	0.71,	0.61
Ac-LRMK HArg PK-NH2 (Ac-LRMK[hArg]PK-NH2; SMILES CSCC[C@H](NC(=O)[C@H](CCCNC(=N)N)NC(=O)[C@H](CC(C)C)NC(C)=O)C(=O)N[C@@H](CCCCN)C(=O)N[C@@H](CCCCNC(=N)N)C(=O)N1CCC[C@H]1C(=O)N[C@@H](CCCCN)C(N)=O) [AE227]	–	0.35	–	0.18,	0.33	0.18,	0.19	0.45,	0.36
Ac-LRMK K PK-NH2 (Ac-LRMKKPK-NH2) [AE229]	–	–	–	0.38,	0.58	0.55,	0.49	0.71,	0.62
Ac-LRMK M PK-NH2 (Ac-LRMKMPK-NH2) [AE236]	–	–	–	0.41,	0.58	0.56,	0.53	0.76,	0.72
Ac-LRMK N PK-NH2 (Ac-LRMKNPK-NH2) [AE232]	–	0.46	–	0.50,	0.50	0.68,	0.61	0.97,	0.83
